T1: ARHGEF11, O15085
T1 sequence (O15085 42-136, limits assumed, looked up): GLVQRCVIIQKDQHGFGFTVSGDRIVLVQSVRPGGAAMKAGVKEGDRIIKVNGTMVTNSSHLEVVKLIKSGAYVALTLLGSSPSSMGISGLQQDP

T2: LNX2_2, Q8N448
T2 sequence (Q8N448 334-432, limits assumed, looked up): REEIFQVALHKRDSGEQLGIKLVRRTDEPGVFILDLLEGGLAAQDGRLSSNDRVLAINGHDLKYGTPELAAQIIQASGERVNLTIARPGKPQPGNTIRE

T3: APBA1_1, Q02410
T3 sequence (Q02410 651-752, limits assumed, looked up): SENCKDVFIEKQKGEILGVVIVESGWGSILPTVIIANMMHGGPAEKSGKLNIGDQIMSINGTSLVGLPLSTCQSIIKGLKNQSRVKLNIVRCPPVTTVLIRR

T4: SNTB1, Q13884
T4 sequence (Q13884 107-205, limits assumed, looked up): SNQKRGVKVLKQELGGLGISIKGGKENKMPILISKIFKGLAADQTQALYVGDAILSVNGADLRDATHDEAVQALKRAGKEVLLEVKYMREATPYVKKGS

T5: GRIP1_2, Q9Y3R0
T5 sequence (Q9Y3R0 145-248, limits assumed, looked up): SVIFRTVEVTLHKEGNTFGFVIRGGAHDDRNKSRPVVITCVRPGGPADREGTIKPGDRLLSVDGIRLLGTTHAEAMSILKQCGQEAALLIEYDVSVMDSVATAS

T6: TX1BP3, O14907
T6 sequence (O14907 10-122, limits assumed, looked up): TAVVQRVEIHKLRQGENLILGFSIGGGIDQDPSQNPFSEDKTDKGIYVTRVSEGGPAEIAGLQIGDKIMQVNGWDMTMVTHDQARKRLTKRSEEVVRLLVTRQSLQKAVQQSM

T7: CARD11, Q9BXL7
T7 sequence (Q9BXL7 662-765, limits assumed, looked up): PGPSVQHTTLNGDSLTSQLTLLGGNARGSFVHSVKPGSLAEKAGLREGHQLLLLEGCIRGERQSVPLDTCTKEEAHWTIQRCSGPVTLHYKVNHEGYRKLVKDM

T8: RADIL, Q96JH8
T8 sequence (Q96JH8 971-1071, limits assumed, looked up): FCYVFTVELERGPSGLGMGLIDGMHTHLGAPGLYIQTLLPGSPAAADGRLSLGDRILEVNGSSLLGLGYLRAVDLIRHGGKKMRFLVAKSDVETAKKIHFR

T9: MPDZ_5, O75970
T9 sequence (O75970 695-796, limits assumed, looked up): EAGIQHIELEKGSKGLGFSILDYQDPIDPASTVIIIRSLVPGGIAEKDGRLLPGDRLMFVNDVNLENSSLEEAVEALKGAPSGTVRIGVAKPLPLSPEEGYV

T10: MPP2, Q14168
T10 sequence (Q14168 180-250, limits assumed, looked up): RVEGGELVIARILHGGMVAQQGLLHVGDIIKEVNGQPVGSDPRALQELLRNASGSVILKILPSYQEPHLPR

T11: APBA2_2, Q99767
T11 sequence (Q99767 654-744, limits assumed, looked up): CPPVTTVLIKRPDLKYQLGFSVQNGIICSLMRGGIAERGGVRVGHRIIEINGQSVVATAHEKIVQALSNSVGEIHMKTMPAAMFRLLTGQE

T12: DLG3_1, Q92796
T12 sequence (Q92796 125-227, limits assumed, looked up): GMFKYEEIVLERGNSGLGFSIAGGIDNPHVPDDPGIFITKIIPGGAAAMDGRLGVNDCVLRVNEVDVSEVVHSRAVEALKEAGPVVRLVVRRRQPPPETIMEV


Legend:
Test in all cases: holdup assay
Parameters in all cases: key: below the threshold = too weak to quantify, mostly under pKd 3.1 to 4
Conditions in all cases: plain residues with an end cap or a label only (N-terminal biotin on a linker: ado-ado)
ARHGEF11, O15085 = target: T1, ARHGEF11, O15085
DLG4_2, P78352 = target: DLG4_2, P78352
DLG4_2, P78352, sequence (P78352 155-259): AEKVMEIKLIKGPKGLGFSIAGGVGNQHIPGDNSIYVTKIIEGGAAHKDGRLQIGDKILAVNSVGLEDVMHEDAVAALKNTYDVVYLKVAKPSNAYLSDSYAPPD

DLG1_1, Q12959 = target: DLG1_1, Q12959
LNX2_2, Q8N448 = target: T2, LNX2_2, Q8N448
PDZRN4_1, Q6ZMN7 = target: PDZRN4_1, Q6ZMN7
PDZRN4_1, Q6ZMN7, sequence (Q6ZMN7 213-318): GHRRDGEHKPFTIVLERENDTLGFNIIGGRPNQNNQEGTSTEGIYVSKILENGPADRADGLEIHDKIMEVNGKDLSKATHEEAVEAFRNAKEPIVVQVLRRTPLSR

LAP2, Q96RT1 = target: LAP2, Q96RT1
LAP2, Q96RT1, sequence (Q96RT1 other isoform, or with tags, fused parts or gaps): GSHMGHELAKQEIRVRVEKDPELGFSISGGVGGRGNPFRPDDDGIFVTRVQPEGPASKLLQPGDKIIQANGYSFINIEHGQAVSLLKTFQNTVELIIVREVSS

APBA1_1, Q02410 = target: T3, APBA1_1, Q02410
SNTB1, Q13884 = target: T4, SNTB1, Q13884
GRIP1_2, Q9Y3R0 = target: T5, GRIP1_2, Q9Y3R0
TX1BP3, O14907 = target: T6, TX1BP3, O14907
TJP1_2, Q07157 = target: TJP1_2, Q07157
TJP1_2, Q07157, sequence (Q07157 181-274): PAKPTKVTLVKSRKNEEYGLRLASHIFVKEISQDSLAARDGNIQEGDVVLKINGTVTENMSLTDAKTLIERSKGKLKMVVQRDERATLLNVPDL

MAGI3_2, Q5TCQ9 = target: MAGI3_2, Q5TCQ9
MAGI3_2, Q5TCQ9, sequence (Q5TCQ9 398-503): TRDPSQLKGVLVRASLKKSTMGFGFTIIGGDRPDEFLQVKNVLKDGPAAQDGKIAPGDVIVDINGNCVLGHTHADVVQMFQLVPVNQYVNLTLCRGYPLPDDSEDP

AHNAK1, Q09666 = target: AHNAK1, Q09666
AHNAK1, Q09666, sequence (Q09666 4-100): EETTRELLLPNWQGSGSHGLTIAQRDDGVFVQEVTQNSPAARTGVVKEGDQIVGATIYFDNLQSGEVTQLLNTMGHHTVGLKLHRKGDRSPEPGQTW

DLG1_3, Q12959 = target: DLG1_3, Q12959
Inadl_10, Q8NI35 = target: Inadl_10, Q8NI35
Inadl_10, Q8NI35, sequence (Q8NI35 1673-1763): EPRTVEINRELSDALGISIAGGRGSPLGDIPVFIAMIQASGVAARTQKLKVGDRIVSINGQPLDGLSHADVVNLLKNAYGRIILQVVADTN

CARD11, Q9BXL7 = target: T7, CARD11, Q9BXL7
TJP2_1, Q9UDY2 = target: TJP2_1, Q9UDY2
TJP2_1, Q9UDY2, sequence (Q9UDY2 24-128): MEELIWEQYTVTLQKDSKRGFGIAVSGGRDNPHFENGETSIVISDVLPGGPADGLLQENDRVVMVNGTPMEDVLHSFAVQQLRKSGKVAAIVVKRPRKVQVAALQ

MAGI2_4, Q86UL8 = target: MAGI2_4, Q86UL8
MAGI2_4, Q86UL8, sequence (Q86UL8 772-865): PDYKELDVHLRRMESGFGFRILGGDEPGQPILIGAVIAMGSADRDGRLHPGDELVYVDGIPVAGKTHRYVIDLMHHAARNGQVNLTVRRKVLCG

DLG2_3, Q15700 = target: DLG2_3, Q15700
RADIL, Q96JH8 = target: T8, RADIL, Q96JH8
LNX1_2, Q8TBB1 = target: LNX1_2, Q8TBB1
LNX1_2, Q8TBB1, sequence (Q8TBB1 371-470): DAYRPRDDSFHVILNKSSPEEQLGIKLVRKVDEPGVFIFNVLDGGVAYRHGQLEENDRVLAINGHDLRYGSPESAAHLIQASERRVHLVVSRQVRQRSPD

PICK1, Q9NRD5 = target: PICK1, Q9NRD5
PICK1, Q9NRD5, sequence (Q9NRD5 17-115): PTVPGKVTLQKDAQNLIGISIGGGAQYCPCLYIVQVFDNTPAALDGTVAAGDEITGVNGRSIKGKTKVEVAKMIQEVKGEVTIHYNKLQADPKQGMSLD

MPDZ_5, O75970 = target: T9, MPDZ_5, O75970
MPP2, Q14168 = target: T10, MPP2, Q14168
APBA2_2, Q99767 = target: T11, APBA2_2, Q99767
DLG3_1, Q92796 = target: T12, DLG3_1, Q92796

Row | pKd (ARHGEF11, O15085) | pKd (DLG4_2, P78352) | pKd (DLG1_1, Q12959) | pKd (LNX2_2, Q8N448) | pKd (PDZRN4_1, Q6ZMN7) | pKd (LAP2, Q96RT1) | pKd (APBA1_1, Q02410) | pKd (SNTB1, Q13884) | pKd (GRIP1_2, Q9Y3R0) | pKd (TX1BP3, O14907) | pKd (TJP1_2, Q07157) | pKd (MAGI3_2, Q5TCQ9) | pKd (AHNAK1, Q09666) | pKd (DLG1_3, Q12959) | pKd (Inadl_10, Q8NI35) | pKd (CARD11, Q9BXL7) | pKd (TJP2_1, Q9UDY2) | pKd (MAGI2_4, Q86UL8) | pKd (DLG2_3, Q15700) | pKd (RADIL, Q96JH8) | Binder | other results
1 | 3.83 | below the threshold | below the threshold | below the threshold | below the threshold | below the threshold | below the threshold | below the threshold | below the threshold | below the threshold | below the threshold | below the threshold | below the threshold | below the threshold | below the threshold | below the threshold | below the threshold | below the threshold | below the threshold | below the threshold | VRNLPESEEL [MYOZ3, Q8TDC0] | pKd (LNX1_2, Q8TBB1): below the threshold; pKd (PICK1, Q9NRD5): 4.05; pKd (MPDZ_5, O75970): below the threshold; pKd (MPP2, Q14168): below the threshold; pKd (APBA2_2, Q99767): below the threshold; pKd (DLG3_1, Q92796): below the threshold
2 | below the threshold | 3.78 | below the threshold | 5.4 | below the threshold | below the threshold | below the threshold | below the threshold | below the threshold | below the threshold | below the threshold | 4.73 | below the threshold | below the threshold | below the threshold | below the threshold | below the threshold | 3.87 | 3.96 | 4.82 | QSLNRMEYIV [JAG1, P78504] | pKd (LNX1_2, Q8TBB1): 4.51; pKd (PICK1, Q9NRD5): below the threshold; pKd (MPDZ_5, O75970): 4.07; pKd (MPP2, Q14168): below the threshold; pKd (APBA2_2, Q99767): below the threshold; pKd (DLG3_1, Q92796): below the threshold
3 | below the threshold | below the threshold | below the threshold | below the threshold | below the threshold | below the threshold | below the threshold | below the threshold | below the threshold | below the threshold | below the threshold | below the threshold | below the threshold | below the threshold | below the threshold | below the threshold | below the threshold | 3.79 | 3.74 | below the threshold | GNSVLKSTQF [SLC22A12, Q96S37] | pKd (LNX1_2, Q8TBB1): below the threshold; pKd (PICK1, Q9NRD5): 4.02; pKd (MPDZ_5, O75970): below the threshold; pKd (MPP2, Q14168): below the threshold; pKd (APBA2_2, Q99767): below the threshold; pKd (DLG3_1, Q92796): below the threshold
4 | 3.82 | below the threshold | below the threshold | below the threshold | below the threshold | below the threshold | below the threshold | below the threshold | below the threshold | below the threshold | below the threshold | below the threshold | below the threshold | below the threshold | below the threshold | below the threshold | below the threshold | below the threshold | below the threshold | below the threshold | IPLDGETEEL [MYOZ1, Q9NP98] | pKd (LNX1_2, Q8TBB1): below the threshold; pKd (PICK1, Q9NRD5): below the threshold; pKd (MPDZ_5, O75970): below the threshold; pKd (MPP2, Q14168): below the threshold; pKd (APBA2_2, Q99767): below the threshold; pKd (DLG3_1, Q92796): below the threshold
5 | 4.41 | 4.59 | 4.23 | below the threshold | 5.27 | 3.94 | below the threshold | 4.88 | below the threshold | 4.8 | below the threshold | 4.06 | below the threshold | 4.1 | below the threshold | below the threshold | below the threshold | below the threshold | 4.19 | below the threshold | RHGSCVETSL [TMEM151B, Q8IW70] | pKd (LNX1_2, Q8TBB1): below the threshold; pKd (PICK1, Q9NRD5): 4.18; pKd (MPDZ_5, O75970): below the threshold; pKd (MPP2, Q14168): below the threshold; pKd (APBA2_2, Q99767): below the threshold; pKd (DLG3_1, Q92796): 3.53
